Assay results taken from PMC6949242.
pKd: −log10 of the molar value.

Experiments:
[1] = biological target: FOXO1 DNA-binding domain (UniProt Q12778); assay: ITC; settings: FOXO1 alone; 50 mM Bis-Tris, 150 mM NaCl, pH 6.5; ITC at 25 °C; NMR 1H-15N HSQC with 100 uM FOXO1
[2] = biological target: FOXO1 DNA-binding domain;ETS1 DNA-binding domain (UniProt Q12778+P14921); assay: ITC; settings: FOXO1 titrated into equimolar ETS1 + DNA; Kd of FOXO1; 50 mM Bis-Tris, 150 mM NaCl, pH 6.5; ITC at 25 °C; NMR 1H-15N HSQC with 100 uM FOXO1
[3] = biological target: FOXO1 DNA-binding domain (UniProt Q12778); assay: NMR; settings: FOXO1 alone, 50 mM Bis-Tris, 150 mM NaCl, pH 6.5, ITC at 25 °C, NMR 1H-15N HSQC with 100 uM FOXO1
[4] = biological target: FOXO1 DNA-binding domain;ETS1 R409A R409A (UniProt Q12778+P14921); assay: ITC; settings: FOXO1 titrated into equimolar ETS1 R409A + DNA; Kd of FOXO1; 50 mM Bis-Tris, 150 mM NaCl, pH 6.5; ITC at 25 °C; NMR 1H-15N HSQC with 100 uM FOXO1
[5] = biological target: FOXO1 DNA-binding domain;ETS1 R409H R409H (UniProt Q12778+P14921); assay: ITC; settings: FOXO1 titrated into equimolar ETS1 R409H + DNA; Kd of FOXO1; 50 mM Bis-Tris, 150 mM NaCl, pH 6.5; ITC at 25 °C; NMR 1H-15N HSQC with 100 uM FOXO1
[6] = biological target: FOXO1 DNA-binding domain;ETS1 Y410A Y410A (UniProt Q12778+P14921); assay: ITC; settings: FOXO1 titrated into equimolar ETS1 Y410A + DNA; Kd of FOXO1; 50 mM Bis-Tris, 150 mM NaCl, pH 6.5; ITC at 25 °C; NMR 1H-15N HSQC with 100 uM FOXO1

CTGTAAACAGGAAGTGGAG (double strand) [ω-none]
pKd [1]: 7.62
pKd [2]: 7.59

TGACGCACCGGAAGTTAGG (double strand) [ω-high]
pKd ([3]; fit of residue G161 peak): 3.91
pKd ([3]; mean of selected peaks, fast exchange): 3.78

AAAACAACAGGAAGTATTT (double strand) [ω]
pKd [1]: 6.45
pKd [4]: 6.82
pKd [2]: 7.36
pKd [5]: 7.17
pKd [6]: 6.50
